Measured values from doi:10.1101/2024.06.21.600134 (bioRxiv, 2024).

Molecular target: LPD-3 (C-terminally tagged, from lpd3::mvenus worms) (C. elegans, UniProt A0A0K3AWP8 1-4022)
Test: affinity purification with mass spectrometry

- binding result: binds
B1: Spigot (natural protein, C. elegans, UniProt Q4W5H0 1-276, looked up)
chain: MRIFVFDGTSVIYVCAVIILILIWVAIIGQRQIWRHRHNVARVRPQVSLSSRISSKKAVLLRETQLDTVMRLRCENQARLTDCISLQFHGEKPYVHRMIAVDEVTLEIDGQLNRIEGAVQRQAGESTYSYLKRIREKVPSIPLNLVHRIAFLQESARFRPEKFDVEQVMELRSLLNQFLRILSAEYDSLSDEPDMAAPRGVIASFYQFGQKIMPNNSGSKRRRNKFGGSDGVRLLMKEREEQLSLLSPLARASADSPAPAAHLRRQSDSHSALLPQ
